Measured values published in article PMC8797470, “Disruption of the pentraxin 3/CD44 interaction as an efficient therapy for triple‐negative breast cancers” (Clinical and Translational Medicine, 2022).

Target: T1, full-length PTX3 (#1826-TS; R&D Systems) (UniProt P26022 18-381)
T1 construct: bought protein; source: bought: R&D Systems (#1826-TS)
Test: SPR; BIAcore 3000; full-length PTX3 amine-coupled to a CM5 chip (4000-6000 RU); N-terminal CD44 as analyte; PBS pH 7.2, 10 μl/min, 1 min association, 2 min dissociation; 1:1 Langmuir model
Details: both partners purified

T1 sequence (P26022 18-381): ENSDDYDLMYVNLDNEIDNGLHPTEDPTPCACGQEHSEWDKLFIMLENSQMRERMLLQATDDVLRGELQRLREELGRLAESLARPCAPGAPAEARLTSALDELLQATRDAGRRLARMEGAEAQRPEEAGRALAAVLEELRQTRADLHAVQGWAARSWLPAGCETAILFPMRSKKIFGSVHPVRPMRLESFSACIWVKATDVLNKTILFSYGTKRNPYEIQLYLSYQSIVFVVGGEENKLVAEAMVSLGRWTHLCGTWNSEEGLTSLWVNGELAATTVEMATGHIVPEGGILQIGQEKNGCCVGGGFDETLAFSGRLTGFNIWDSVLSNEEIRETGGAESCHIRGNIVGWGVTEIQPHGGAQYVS

Kd: 21 nM
koff: 2.43e-06 s⁻¹
kon: 130 M⁻¹ s⁻¹
B1: N-terminal of CD44 (#CD44-3961H; Creative Biomart) (domain or fragment)
chain: QIDLNITCRFAGVFHVEKNGRYSISRTEAADLCKAFNSTLPTMAQMEKALSIGFETCRYGFIEGHVVIPRIHPNSICAANNTGVYILTSNTSQYDTYCFNASAPPEEDCTSVTDLPNAFDGPITITIVNRDGTRYVQKGEYRTNPEDIYPSNPTDDDV
modifications: Bought protein with limits not printed. Limits are the conventional N-terminal hyaluronan-binding domain (Link domain plus flanks, mature start 21 to 178). This range covers the predicted PTX3 …
